Measured values from the supplement of paper PMC10724198.
± gives the standard deviation of the averaged measurements.

What follows are sequences tested on Saccharomyces cerevisiae (assay: protein stability index of tFT-peptide fusion (C-terminal peptide) (PSI (0-1 scale)); higher = more stable (slower turnover)). Settings: genetic background: wild type; temperature: 30 C.
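Also: PSI is a weighted mean of sequencing reads over stability bins, variants kept only with over 10 reads, mCherry proximal and sfGFP distal, peptide attached via GGGS linker.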

Sequence	protein stability index
VPEVRRTDGRVR	0.74 ± 0.014
VPFGPLRPALYL	0.708 ± 0.018
VPGASSSLSSSP	0.667 ± 0.077
VPLPGAAGATLL	0.773 ± 0.091
VPLPLVPCARIY	0.627 ± 0.0093
VPLYVDLYLSGA	0.721 ± 0.043
VPNTFVGVLICP	0.607 ± 0.026
VPPFGPTPLASI	0.797 ± 0.073
VPPHLLLSLSPP	0.635 ± 0.02
VPPRPPLPPRPP	0.625 ± 0.027
VPPSYDLPLFPF	0.632 ± 0.013
VPSAFLYLVGSL	0.591 ± 0.01
VPSANAQTPSTC	0.717 ± 0.071
VPSGVWGVLGFA	0.667 ± 0.048
VPSPFIPVSPTL	0.669 ± 0.012
VPSSCFLLDLPP	0.648 ± 0.047
VPSSVLIPRPLF	0.72 ± 0.081
VPVITLGSRISG	0.658 ± 0.0088
VQDFTFLLPLAP	0.692 ± 0.17
VQSSLSDFYVSS	0.707 ± 0.061
VQSVDVLLISSL	0.642 ± 0.032
VQSWGGRGMVVW	0.719 ± 0.036
VQTHPFWFPTLL	0.573 ± 0.07
VRARSTSCGIWC	0.692 ± 0.045
VRARTAFVPLPA	0.727 ± 0.097
VRATSMWRSRGR	0.688 ± 0.053

Sequence	protein stability index
VRDLDMEEISRY	0.727 ± 0.05
VRDLGSPFIVYR	0.64 ± 0.059
VRGLGFVSWFFL	0.651 ± 0.025
VRGRVGYFIVRK	0.642 ± 0.044
VRGSLGQGNDTA	0.706 ± 0.03
VRINNIGKRVNR	0.706 ± 0.025
VRKGSERKKAGN	0.6686 ± 0.0043
VRPQHIITSGSC	0.739 ± 0.15
VRRGGGVGGYGI	0.734 ± 0.084
VRRRANVRVLRD	0.688 ± 0.077
VRRRKLAKCEVN	0.474 ± 0.058
VRRTRGGLRGWS	0.6987 ± 0.0053
VRRWAVSSAFVG	0.628 ± 0.054
VRWTVAWAVGAT	0.689 ± 0.12
VRYGQRGTFGLL	0.6901 ± 0.0019
VSAPLGRFSGLV	0.685 ± 0.036
VSDMILSATFCM	0.643 ± 0.042
VSDVIPRSRCVR	0.6884 ± 0.0024
VSGCVCAAADVL	0.696 ± 0.027
VSGCVMIYGRTV	0.724 ± 0.027
VSGSVVLHTVIP	0.658 ± 0.017
VSGVLPGALFPL	0.684 ± 0.053
VSGYGSSQDDVR	0.6397 ± 0.0056
VSIGGLLGCVLF	0.692 ± 0.048
VSMSACSPGGMS	0.646 ± 0.02
VSNKWATANKYG	0.644 ± 0.051

Sequence	protein stability index
VSPGLFRSPPHY	0.664 ± 0.011
VSPLPSPVPLLP	0.69 ± 0.076
VSPNSFVGRPCF	0.717 ± 0.072
VSPSPIPSMPVI	0.71 ± 0.078
VSREWNVSIDVF	0.495 ± 0.027
VSRGGMSGIVCL	0.773 ± 0.11
VSRGIFSGRGGV	0.736 ± 0.018
VSSCLHDYSAIY	0.744 ± 0.029
VSSTFGQDTSKR	0.715 ± 0.024
VSVVVGLLFVGF	0.5 ± 0.065
VSWLSTKCWTIL	0.563 ± 0.038
VSYLLPPPPPPP	0.682 ± 0.046
VTGDRGGVRGGE	0.685 ± 0.012
VTHNTLLRTKVV	0.518 ± 0.0069
VTLRLCGQSVVV	0.585 ± 0.0085
VTLWQLANNTLG	0.626 ± 0.028
VTNVTSETRVLT	0.6816 ± 0.0013
VTPLPHPPLPPP	0.756 ± 0.089
VTPPGFTYVLEV	0.619 ± 0.058
VVAFSLLSGFLV	0.636 ± 0.04
VVALHYNYFSRL	0.613 ± 0.09
VVDSGLFLAASR	0.643 ± 0.08
VVDWRRAAKREG	0.685 ± 0.051
VVFLWGVFGGSI	0.688 ± 0.055
VVGAGGLCNMDV	0.635 ± 0.029
VVGDGVWCLSVG	0.721 ± 0.046

Sequence	protein stability index
VVGRLERRLREQ	0.674 ± 0.017
VVLGFGPRFRVV	0.584 ± 0.018
VVLGLWGLCCGC	0.527 ± 0.029
VVLVGVVGGMVG	0.639 ± 0.018
VVRGKRRVRWLR	0.625 ± 0.049
VVSFGRIGGVGR	0.675 ± 0.027
VVSIIQDITLIS	0.7094 ± 0.0034
VVTEKLKRAARA	0.669 ± 0.021
VVVGRWSVLSSV	0.522 ± 0.017
VVVLGVGGVGWW	0.704 ± 0.019
VVWKRALWGEGL	0.791 ± 0.073
VWGGYGQFYGWK	0.606 ± 0.049
VWLGEYGVGCSV	0.655 ± 0.048
VWRVGRARGQMG	0.6953 ± 0.0017
VWSVDVSGCVVR	0.641 ± 0.031
VWVWHGAVLMGG	0.527 ± 0.017
VYASMFRAAWPF	0.746 ± 0.076
VYMAGSFSRLFQ	0.723 ± 0.034
VYSDSCLLRKTT	0.695 ± 0.02
VYTEFWERQGLL	0.796 ± 0.051
WACGYLGSTILS	0.643 ± 0.067
WAGSGCECTGGG	0.705 ± 0.0031
WAGVTLRLRSAV	0.682 ± 0.055
